Results reported in patent US7442684 (TRUSTEES OF COLUMBIA UNIVERSITY IN THE CITY OF NEW YORK, dated 2008).

Molecular target: T1, human FSH receptor (human, UniProt P23945 18-695)
T1 construct: whole, on cells; Expressed in Y-1 (Y1) cells. cAMP is the read-out; also called hFSH receptor; recombinant native hFSH receptor
T1 sequence (looked up): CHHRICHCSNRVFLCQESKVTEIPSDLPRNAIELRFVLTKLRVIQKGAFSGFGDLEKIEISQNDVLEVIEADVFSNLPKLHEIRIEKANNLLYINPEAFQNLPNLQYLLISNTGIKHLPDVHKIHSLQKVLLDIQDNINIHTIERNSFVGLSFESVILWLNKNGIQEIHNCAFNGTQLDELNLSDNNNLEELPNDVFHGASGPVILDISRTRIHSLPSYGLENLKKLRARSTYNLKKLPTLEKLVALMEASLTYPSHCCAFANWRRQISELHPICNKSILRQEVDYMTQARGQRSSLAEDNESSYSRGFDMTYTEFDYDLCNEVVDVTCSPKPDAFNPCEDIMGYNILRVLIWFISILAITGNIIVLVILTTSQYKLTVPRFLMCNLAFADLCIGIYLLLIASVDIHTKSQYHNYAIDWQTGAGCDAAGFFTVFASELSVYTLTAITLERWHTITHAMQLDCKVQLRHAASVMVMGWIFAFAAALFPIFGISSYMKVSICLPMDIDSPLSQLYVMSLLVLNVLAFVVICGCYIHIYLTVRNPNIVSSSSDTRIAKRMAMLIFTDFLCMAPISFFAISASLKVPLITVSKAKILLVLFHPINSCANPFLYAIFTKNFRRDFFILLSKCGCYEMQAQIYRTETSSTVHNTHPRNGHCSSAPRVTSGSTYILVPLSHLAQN
Test: conclusion drawn from the cAMP assay on cells expressing the hFSH receptor; no direct binding assay
Method: Bioactivity of the hFSH analogues was evaluated using Y-1 cells transfected with the FSH receptor. Y-1 cell cultures were mixed with the fusion protein and native pituitary hFSH (control) at varying concentrations and media was assayed for cAMP activity as described in Bouloux et al, 2001.
Figure 8: FIG. 8: In vitro bioassay of hormone activity. cAMP concentration (fmol/ml) was quantitated in Y1 cells expressing the FSH receptor after treatment with the indicated amount of either pituitary FSH (pFSH) or the FSH analogue, β-hFSH-CTP-α-hFSH (rFSH-CTP).
The bioactivity of the β-hFSH-CTP-α analogue was first assessed by an assay of hFSH receptor activity. In this assay, a recombinant native hFSH receptor is expressed in a suitable host cell and cAMP induction is measured following incubation with hormone (Lindau-Shepard et al, 2001).

B1: β-hFSH-CTP-α-hFSH fusion protein (ligand)
chain: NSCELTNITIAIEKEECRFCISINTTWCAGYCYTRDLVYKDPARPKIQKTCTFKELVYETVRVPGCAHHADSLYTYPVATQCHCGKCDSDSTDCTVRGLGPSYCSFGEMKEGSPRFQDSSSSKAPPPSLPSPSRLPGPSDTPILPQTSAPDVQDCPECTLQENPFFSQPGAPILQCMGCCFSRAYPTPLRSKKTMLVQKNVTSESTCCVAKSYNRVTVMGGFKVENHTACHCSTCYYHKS
modifications: O-linked glycosylation on serines of the CTP linker; N-linked glycosylation on the FSH subunits (sites not numbered on this entry)
notes: Secreted from CHO cells; also called β-hFSH-CTP-α analogue; rFSH-CTP
binding result: binds
